From patent US20250346646A1, “COMPOUNDS USEFUL TO TREAT METABOLIC DISORDERS” (President and Fellows of Harvard College, priority 2016, published 2025)

Assays:
[1] = system: mice with diet induced obesity; assay: Glucagon challenge test in mice with diet induced obesity; type: in vivo, mouse; conditions: HFD 20 weeks; 33 mg/kg i.p. twice a week for 3 weeks; 150 μg/kg glucagon after 4-hour fast; vs vehicle
Method: Mice were fed high fat diet for 20 weeks prior to the experiment. Starting from the 20th week, mice were injected with vehicle or anti-aP2 mAb at a dose of 33 mg/kg injected i.p. twice a week for 3 weeks.

[2] = target: human glucagon receptor (Homo sapiens, UniProt P47871); assay: cAMP-response element luciferase reporter in CHO-K1 cells expressing human GCGR-GFP; type: cell-based; conditions: CHO-K1 human GCGR cAMP reporter
Method: Bar graphs represent mean±standard deviation (s.d.), n=4-5 per group. *P<0.05, **P<0.01, ***P≤0.001, ****P≤0.0001, ns P>0.05. Multiple group comparisons were done using one-way ANOVA statistics with Tukey post-test correction. Graphs show data as mean±standard error of mean (s.e.m.), analyzed using two-way ANOVA.
During cloning hexahistadine and WELQ protease site was added for protein purification. Murine aP2 gene was cloned into pet21+ vector after the hexahistadine tag and TEV protease site for ease of purification.
Plasmids were transfected using Lipofectamine (Invitrogen) according to manufacturer's instructions. Transiently transfected cells were grown in appropriate selection antibiotics where applicable for stable cell line generation. Following three passages under selection media, single cell colonies were picked and expanded for experimentation after validation.

[3] = target: T1, GCGR-ecd (Homo sapiens, UniProt P47871); assay: Biolayer interferometry: GCGR-ecd binding to biotin-glucagon with or without aP2; conditions: BLITZ biolayer interferometry
T1 construct: GCGR extracellular domain was cloned into pFastBac shuttle vector; hexahistidine; WELQ protease site; made in house; host or cells: baculovirus expression system (pFastBac)

[4] = target: biotin-glucagon (Homo sapiens, UniProt P01275); assay: Bio-Layer Interferometry: aP2 binding to biotin-glucagon; conditions: read-out: Kdapp aP2 / biotinylated glucagon; biolayer interferometry, 25° C., PBS
[5] = target: glucagon (Homo sapiens, UniProt P01275); assay: Microscale thermophoresis, binding to glucagon; conditions: read-out: Kd, binding to glucagon; MST
[6] = system: aP2 knockout mice; assay: Glucagon response of aP2 knockout mice given aP2, with or without CA33 preincubation; type: in vivo, mouse; conditions: CA33 preincubated with aP2
From the text: Mouse and rabbit-mouse hybrid monoclonal antibodies raised against the human and mouse aP2 peptides were produced and screened. […] The systemic improvement in glucose metabolism was further verified using a glucose tolerance test (GTT).

[7] = system: G6Pc and Pck1 expression in primary hepatocytes; assay: Gluconeogenic gene expression (G6Pc, Pck1) in primary hepatocytes; type: cell-based, mouse; conditions: glucagon 100 nM plus recombinant aP2, vs glucagon alone
[8] = system: primary hepatocytes; assay: De-novo glucose production in primary hepatocytes; type: cell-based, mouse; conditions: 4 hours stimulation, aP2 with glucagon
From the text: (§1) Bar graphs represent mean±standard deviation (s.d.), n=4-5 per group. *P≤0.05, **P≤0.01, ***P≤0.001, ****P≤0.0001, ns P>0.05. Multiple group comparisons were done using one-way ANOVA statistics with Tukey post-test correction.

[9] = system: HepG2-C3A human hepatoma cell line; assay: Glycogenolysis (14C-glucose release) in HepG2-C3A cells; type: cell-based; conditions: 24 hours stimulation, aP2 with glucagon
From the text: as §1

[10] = system: aP2 deficient mice; assay: Hyper-insulinemic-pancreatic clamp in aP2 deficient mice; type: in vivo, mouse; conditions: insulin 3 mU/kg/min, vs vehicle
From the text: Multiple group comparisons under clamp conditions were done using one-way ANOVA statistics with Tukey post-test correction. Basal and clamp conditions between groups were compared using repeated measures two-way ANOVA with Sidak correction. Graphs show data as mean s.e.m.

[11] = system: aP2 deficient mice; assay: Glucagon injection test (glycaemia) in aP2 deficient mice; conditions: 4-hour food withdrawal
From the text: Graphs show data as mean s.e.m. Experiments were repeated at least three times with similar results.
One-way ordinary ANOVA, with Tukey correction was used for multiple group comparisons. Experiments were repeated at least three times with similar results.

Sequence of human glucagon receptor (P47871 26-477): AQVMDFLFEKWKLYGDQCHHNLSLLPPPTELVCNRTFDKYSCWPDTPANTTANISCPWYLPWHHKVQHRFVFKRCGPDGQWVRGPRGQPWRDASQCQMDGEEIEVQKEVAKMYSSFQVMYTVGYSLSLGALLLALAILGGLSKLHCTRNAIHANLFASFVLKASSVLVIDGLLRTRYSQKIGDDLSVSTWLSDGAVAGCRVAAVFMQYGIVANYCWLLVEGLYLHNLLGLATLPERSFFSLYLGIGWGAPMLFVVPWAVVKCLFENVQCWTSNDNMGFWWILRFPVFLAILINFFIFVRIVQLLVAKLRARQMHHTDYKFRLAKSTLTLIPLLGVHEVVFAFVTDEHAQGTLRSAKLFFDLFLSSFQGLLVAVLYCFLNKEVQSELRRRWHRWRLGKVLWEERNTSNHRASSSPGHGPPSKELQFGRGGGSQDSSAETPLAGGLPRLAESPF
Sequence of glucagon (P01275 53-81 limits assumed): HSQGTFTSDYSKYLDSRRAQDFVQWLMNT
T1 sequence (P47871 26-136 limits assumed): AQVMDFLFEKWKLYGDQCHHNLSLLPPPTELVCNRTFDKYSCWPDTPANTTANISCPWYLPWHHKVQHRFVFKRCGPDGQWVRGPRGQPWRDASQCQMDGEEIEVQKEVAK

B1: anti-aP2 mAb: anti-aP2 monoclonal antibody of Example 4, identity not stated (probably CA33) (antibody, V domains shown)
VH: QSVEESGGRLVTPGTPLTLTCTVSGFSLSTYYMSWVRQAPGKGLEWIGIIYPSGSTYCASWAKGRFTISKASTTVDLKITSPTTEDTATYFCARPDNDGTSGYLSGFGLWGQGTLVTVSS
VL: DVVMTQTPASVSEPVGGTVTIKCQASEDISRYLVWYQQKPGQPPKRLIYKASTLASGVPSRFKGSGSGTDFTLTISDLECDDAATYYCQCTYGTYAGSFFYSFGGGTEVVVE
**Q.** How did the “Response to glucagon injection (glucose levels)” value [1] turn out when B1 was run?
**A.** Its value is “significantly lower response”.

B2: aP2: adipocyte lipid binding protein (aP2), also known as fatty-acid binding protein 4 (FABP4), recombinant (protein)
chain: MCDAFVGTWKLVSSENFDDYMKEVGVGFATRKVAGMAKPNMIISVNGDLVTIRSESTFKNTEISFKLGVEFDEITADDRKVKSIITLDGGALVQVQKWDGKSTTIKRKRDGDKLVVECVMKGVTSTRVYERA
**Q.** How did the “Increase of glucagon potency by aP2 addition” value [2] turn out when B2 was run?
**A.** Its value is “more than one order of magnitude”.

**Q.** What about the “Change of dissociation constant of glucagon to GCGR-ecd on addition of aP2” value [3] of the same molecule?
**A.** The value was “an order of magnitude decrease”.

**Q.** What about the Kd [4] of the same molecule?
**A.** The Kd was 2340 nM.

**Q.** What about the Kd [5] of the same molecule?
**A.** Its Kd is about 214 nM.

**Q.** And the “Glucagon responsiveness of aP2 knockout mice” value [6]?
**A.** Its value is “rescues glucagon unresponsiveness”.

**Q.** And the “Expression of gluconeogenic genes” value [7]?
**A.** The value was “further increased”.

**Q.** And the Hepatic glucose production [8]?
**A.** The Hepatic glucose production was “increased”.

**Q.** And the Glycogenolysis [9]?
**A.** The Glycogenolysis was “increased”.

**Q.** And the “Hepatic glucose production / counterregulatory response to insulin” value [10]?
**A.** Its value is “not seen”.

**Q.** What about the “Glycaemia response (glucagon responsiveness)” value [11] of the same molecule?
**A.** The value was “little to no-response”.
